From article PMC8273617
Each block holds one substance with its values, some of them ahead of it.

Assays:
[1] = biological target: Fc gamma receptor IIIA (FcγRIIIA/CD16) on PTA-6967 NK cells (human) (UniProt P08637)
[2] = biological target: Fc gamma receptor IIIA (FcγRIIIA/CD16) on PTA-6967 NK cells (human) (UniProt P08637); remark: listed apart in the source
VWF (Homo sapiens) = VWF (Homo sapiens) (UniProt P04275); details: cited from earlier work
CD16 (Homo sapiens) = CD16 (Homo sapiens) (UniProt P08637); details: cited from earlier work
Chain of CD16 (Homo sapiens) (P08637 17-254): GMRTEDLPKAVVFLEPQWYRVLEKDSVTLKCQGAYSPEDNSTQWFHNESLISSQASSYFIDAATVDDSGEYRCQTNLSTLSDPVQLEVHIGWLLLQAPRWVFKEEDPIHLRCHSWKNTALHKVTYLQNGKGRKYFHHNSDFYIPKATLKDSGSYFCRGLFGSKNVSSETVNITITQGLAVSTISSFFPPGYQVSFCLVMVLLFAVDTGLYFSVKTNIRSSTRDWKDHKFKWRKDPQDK

Chain of Fc gamma receptor IIIA (FcγRIIIA/CD16) on PTA-6967 NK cells (human) (P08637 17-254): as above
Chain of FVIII (P00451 20-2351): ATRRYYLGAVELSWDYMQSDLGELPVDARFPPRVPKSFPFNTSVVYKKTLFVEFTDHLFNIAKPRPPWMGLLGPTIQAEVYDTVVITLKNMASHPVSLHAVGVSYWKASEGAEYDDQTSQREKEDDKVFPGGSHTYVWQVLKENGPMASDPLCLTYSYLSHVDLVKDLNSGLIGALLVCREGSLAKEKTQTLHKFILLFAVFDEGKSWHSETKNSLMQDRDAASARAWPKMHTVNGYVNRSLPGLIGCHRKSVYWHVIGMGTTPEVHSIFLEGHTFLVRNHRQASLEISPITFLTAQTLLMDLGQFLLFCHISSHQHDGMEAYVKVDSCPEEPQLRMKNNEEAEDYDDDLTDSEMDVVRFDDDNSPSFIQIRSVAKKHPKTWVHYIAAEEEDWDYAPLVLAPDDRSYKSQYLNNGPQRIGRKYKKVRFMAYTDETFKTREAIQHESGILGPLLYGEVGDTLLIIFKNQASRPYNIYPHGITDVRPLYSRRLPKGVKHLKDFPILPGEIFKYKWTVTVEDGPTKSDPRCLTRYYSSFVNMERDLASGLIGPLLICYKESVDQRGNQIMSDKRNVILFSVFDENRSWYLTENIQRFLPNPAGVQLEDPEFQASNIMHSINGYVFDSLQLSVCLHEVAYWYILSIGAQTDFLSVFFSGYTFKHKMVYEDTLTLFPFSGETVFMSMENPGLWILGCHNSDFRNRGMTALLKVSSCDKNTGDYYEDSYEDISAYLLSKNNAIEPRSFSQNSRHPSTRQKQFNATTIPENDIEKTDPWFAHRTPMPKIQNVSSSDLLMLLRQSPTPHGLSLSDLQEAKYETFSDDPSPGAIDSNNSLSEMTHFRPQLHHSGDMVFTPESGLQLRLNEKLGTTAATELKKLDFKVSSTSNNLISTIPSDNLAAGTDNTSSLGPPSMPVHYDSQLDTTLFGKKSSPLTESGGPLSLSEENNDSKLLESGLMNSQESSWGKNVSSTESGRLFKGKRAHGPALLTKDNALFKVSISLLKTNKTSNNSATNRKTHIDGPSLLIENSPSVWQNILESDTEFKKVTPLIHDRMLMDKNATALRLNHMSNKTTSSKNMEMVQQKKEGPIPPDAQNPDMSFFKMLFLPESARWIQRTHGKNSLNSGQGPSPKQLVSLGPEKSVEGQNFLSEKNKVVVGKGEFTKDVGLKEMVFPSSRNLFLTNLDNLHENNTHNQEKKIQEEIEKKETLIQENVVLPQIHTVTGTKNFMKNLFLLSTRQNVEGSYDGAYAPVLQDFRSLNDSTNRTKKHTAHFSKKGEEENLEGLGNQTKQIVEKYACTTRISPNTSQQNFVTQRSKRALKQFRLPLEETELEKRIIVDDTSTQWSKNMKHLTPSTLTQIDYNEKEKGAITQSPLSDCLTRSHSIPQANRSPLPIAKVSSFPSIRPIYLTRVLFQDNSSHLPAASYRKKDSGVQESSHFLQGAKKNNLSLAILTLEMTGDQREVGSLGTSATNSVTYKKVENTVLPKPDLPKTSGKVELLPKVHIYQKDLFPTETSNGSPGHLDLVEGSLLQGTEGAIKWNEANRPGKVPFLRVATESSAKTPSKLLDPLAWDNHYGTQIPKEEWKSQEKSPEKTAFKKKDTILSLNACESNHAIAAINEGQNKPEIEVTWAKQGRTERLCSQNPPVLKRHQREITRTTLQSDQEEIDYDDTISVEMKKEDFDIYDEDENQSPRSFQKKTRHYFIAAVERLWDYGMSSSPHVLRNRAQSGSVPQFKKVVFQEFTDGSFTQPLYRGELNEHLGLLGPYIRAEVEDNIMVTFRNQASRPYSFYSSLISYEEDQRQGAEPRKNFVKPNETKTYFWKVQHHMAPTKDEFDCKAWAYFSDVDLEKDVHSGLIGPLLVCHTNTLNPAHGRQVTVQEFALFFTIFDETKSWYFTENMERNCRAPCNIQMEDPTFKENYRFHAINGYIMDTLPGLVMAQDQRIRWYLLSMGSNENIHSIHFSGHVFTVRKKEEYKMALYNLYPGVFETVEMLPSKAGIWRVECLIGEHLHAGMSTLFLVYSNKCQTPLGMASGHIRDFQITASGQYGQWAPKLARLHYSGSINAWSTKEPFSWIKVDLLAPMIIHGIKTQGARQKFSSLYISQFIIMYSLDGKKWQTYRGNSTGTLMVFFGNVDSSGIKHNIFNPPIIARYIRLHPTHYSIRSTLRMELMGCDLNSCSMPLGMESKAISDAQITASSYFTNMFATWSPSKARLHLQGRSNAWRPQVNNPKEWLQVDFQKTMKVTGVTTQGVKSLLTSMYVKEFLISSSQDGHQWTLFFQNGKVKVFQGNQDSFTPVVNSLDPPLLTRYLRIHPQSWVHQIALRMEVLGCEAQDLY

EC50 of IFNγ secretion (ELISA) by CD16^+ NK cells (PTA-6967), overnight, rFVIIIFc 250 nM to 7.6 pM (Figure 2B) [1]: 6.4 nM | surface CD107a (LAMP1), % LAMP1^+ PTA-6967 NK cells by flow cytometry after 6 hours with 250 nM rFVIIIFc, against untreated cells (Figure 2E) [2]: 8 fold
Substance: recombinant Factor VIII Fc-fusion protein (rFVIIIFc) (Fc fusion)

Substance: FVIII (from UniProt P00451)
Kd (VWF (Homo sapiens)): 0.0002 µM

Substance: IgG1 Fc Fc (from UniProt P01857)
Kd (CD16 (Homo sapiens)): 1 µM
